Measured values: article PMC10201443, “Site-directed biochemical analyses reveal that the switchable C-terminus of Rpc31 contributes to RNA polymerase III transcription initiation” (Nucleic Acids Research, 2022)

T1: Rpc31(aa 121–251)_Flag_ΔS151-G164 (S. cerevisiae, UniProt P17890 121-251, ΔS151-G164)
T1 sequence: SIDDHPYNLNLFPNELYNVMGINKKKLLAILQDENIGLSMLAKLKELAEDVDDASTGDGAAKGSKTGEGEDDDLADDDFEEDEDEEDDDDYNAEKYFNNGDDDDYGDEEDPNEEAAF

T2: Full-length Rpc34 protein with an N-terminal V5 epitope tag, Alexa 647-labeled (S. cerevisiae, UniProt P32910 1-317, Alexa Fluor 647 NHS Ester label (labeling efficiency ~0.8))
T2 construct: Rpc34 of S. cerevisiae, full-length protein; also called Alexa647-labeled Rpc34; fluorescently-labeled Rpc34 protein; source: E. coli BL21 (DE3) RIL, purified (Ni-Sepharose, SUMO tag removed with Ulp1, second Ni-Sepharose passage)
T2 sequence (looked up): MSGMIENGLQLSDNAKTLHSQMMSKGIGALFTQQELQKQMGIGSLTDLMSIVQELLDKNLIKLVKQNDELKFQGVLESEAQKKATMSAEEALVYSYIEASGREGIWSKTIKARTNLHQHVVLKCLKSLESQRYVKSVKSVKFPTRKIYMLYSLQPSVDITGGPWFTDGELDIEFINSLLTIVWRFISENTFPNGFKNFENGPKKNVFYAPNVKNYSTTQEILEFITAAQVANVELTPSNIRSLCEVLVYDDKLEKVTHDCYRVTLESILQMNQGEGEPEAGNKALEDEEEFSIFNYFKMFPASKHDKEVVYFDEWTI

B1: Full-length Rpc34 protein with an N-terminal V5 epitope tag, Alexa 647-labeled (natural protein)
chain: MSGMIENGLQLSDNAKTLHSQMMSKGIGALFTQQELQKQMGIGSLTDLMSIVQELLDKNLIKLVKQNDELKFQGVLESEAQKKATMSAEEALVYSYIEASGREGIWSKTIKARTNLHQHVVLKCLKSLESQRYVKSVKSVKFPTRKIYMLYSLQPSVDITGGPWFTDGELDIEFINSLLTIVWRFISENTFPNGFKNFENGPKKNVFYAPNVKNYSTTQEILEFITAAQVANVELTPSNIRSLCEVLVYDDKLEKVTHDCYRVTLESILQMNQGEGEPEAGNKALEDEEEFSIFNYFKMFPASKHDKEVVYFDEWTI
modifications: Alexa Fluor 647 NHS Ester label (labeling efficiency ~0.8)

Legend:
[1] = target: T1, Rpc31(aa 121–251)_Flag_ΔS151-G164; assay: MST
[2] = target: B1; assay: MST
[3] = target: T2, Full-length Rpc34 protein with an …; assay: MST; Alexa647-labeled Rpc34 constant at 5 nM, unlabeled Rpc31 peptides titrated (WT 1.16 μM to 0.000035 μM); 5 mM sodium phosphate pH 8.0, 0.05% Tween 20; 25°C; MST-on time 5 s; three independent measurements; settings: both partners purified

Row | Kd [2] [µM] | Kd [3] [µM] | Binder | further results
1 |  |  | B1 | Kd [1]: 6.1 µM
2 | 1.2 |  | Rpc31(121-251)-Flag_ΔL165-V185 (protein) SIDDHPYNLNLFPNELYNVMGINKKKLLAISKFNNADDVFTGTGDDASTGDGAAKGSKTGEGEDDDLADDDFEEDEDEEDDDDYNAEKYFNNGDDDDYGDEEDPNEEAAF | 
3 |  | 0.883 ± 0.339 | Rpc31(aa 121–251)_Flag (domain or fragment, S. cerevisiae, UniProt P17890 121-251, looked up, Rpc31 of S. cerevisiae, C-terminal aa 121-251; also called Rpc31 C-terminal Ser121-Phe251 peptide; Rpc31 (aa 121–251) peptide; source: E. coli BL21 (DE3) RIL, purified (Ni-Sepharose, SUMO tag removed with Ulp1, second Ni-Sepharose passage, Source15Q); not shown: FLAG, C-terminal, kept) SIDDHPYNLNLFPNELYNVMGINKKKLLAISKFNNADDVFTGTGLQDENIGLSMLAKLKELAEDVDDASTGDGAAKGSKTGEGEDDDLADDDFEEDEDEEDDDDYNAEKYFNNGDDDDYGDEEDPNEEAAF | 
4 |  | 8.5 ± 5.6 | Rpc31(aa 121–251)_Flag_E183K (domain or fragment, S. cerevisiae, UniProt P17890 121-251, looked up, Rpc31 of S. cerevisiae, C-terminal aa 121-251 with E183K; the methods describe only the wild-type construct; also called Rpc31 peptide with a Glu183Lys (E183K) point mutation; source: E. coli, recombinantly expressed and purified; not shown: FLAG, C-terminal, kept) SIDDHPYNLNLFPNELYNVMGINKKKLLAISKFNNADDVFTGTGLQDENIGLSMLAKLKELAKDVDDASTGDGAAKGSKTGEGEDDDLADDDFEEDEDEEDDDDYNAEKYFNNGDDDDYGDEEDPNEEAAF | 
5 | 4.4 |  | Rpc31(121-251)-Flag_ΔG141-I150 (protein) SIDDHPYNLNLFPNELYNVMSKFNNADDVFTGTGLQDENIGLSMLAKLKELAEDVDDASTGDGAAKGSKTGEGEDDDLADDDFEEDEDEEDDDDYNAEKYFNNGDDDDYGDEEDPNEEAAF | 
